Measurements: US20110105394A1 (Novo Nordisk, published 2011)
*1 amine or outer side, *2 acyl side, *3 side chain or, on linkers, in order; H or OH if unused. Bridges are numbered along the chain shown (N, C = ends). Where no end group is shown, it is not given here. Side-chain parts run from the residue outwards. The star is where a group is joined. X2 = (S)‑4‑Carboxy‑4‑(19-carboxynonadecanoylamino)butyryl, O=C(O)CCCCCCCCCCCCCCCCCCC(=O)N[C@@H](CCC(=O)*)C(=O)O; C20 diacid = O=C(O)CCCCCCCCCCCCCCCCCCC(=O)*; γGlu = O=C(O)[C@H](CCC(=O)[*:2])N[*:1]; AEEA = NCCOCCOCC(=O)O

T1: Amylin 3(a) receptor (human calcitonin receptor (CTa) with RAMP-3) (human, UniProt P30988 25-474; O60896 24-148, limits assumed)
T1 sequence (looked up) 1: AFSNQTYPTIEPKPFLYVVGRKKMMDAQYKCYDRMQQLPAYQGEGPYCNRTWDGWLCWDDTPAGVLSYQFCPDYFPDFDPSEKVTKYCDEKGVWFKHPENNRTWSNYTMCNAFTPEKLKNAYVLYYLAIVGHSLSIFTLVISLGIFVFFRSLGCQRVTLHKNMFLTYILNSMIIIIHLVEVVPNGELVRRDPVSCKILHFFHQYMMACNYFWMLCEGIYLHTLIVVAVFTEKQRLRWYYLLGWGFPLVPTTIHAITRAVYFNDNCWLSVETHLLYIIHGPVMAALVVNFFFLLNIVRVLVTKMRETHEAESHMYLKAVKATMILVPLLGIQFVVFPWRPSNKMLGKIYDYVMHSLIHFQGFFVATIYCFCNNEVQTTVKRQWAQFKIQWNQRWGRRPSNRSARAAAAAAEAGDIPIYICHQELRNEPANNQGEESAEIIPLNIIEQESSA
T1 sequence (looked up) 2: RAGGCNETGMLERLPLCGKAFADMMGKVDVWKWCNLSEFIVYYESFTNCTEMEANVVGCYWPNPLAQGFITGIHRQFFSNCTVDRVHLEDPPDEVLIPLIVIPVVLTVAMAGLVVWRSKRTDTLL

B1: N-alpha-[(S)-4-Carboxy-4-(19-carboxynonadecanoylamino)butyryl]-Glu-Arg-[Glu1,Asp14,His17,Ala25,Pro26,Ser28,Ser29]-pramlintide (peptide)
peptide: X2-ERECNTATCATQRLADFLHHSSNNFGAPLSSTNVGSNTY-NH2
modifications: disulfide 4-9
SMILES: CC(C)C[C@H](NC(=O)[C@H](CCCNC(=N)N)NC(=O)[C@H](CCC(N)=O)NC(=O)[C@@H](NC(=O)[C@H](C)NC(=O)[C@@H]1CSSC[C@H](NC(=O)[C@H](CCC(=O)O)NC(=O)[C@H](CCCNC(=N)N)NC(=O)[C@H](CCC(=O)O)NC(=O)CC[C@H](NC(=O)CCCCCCCCCCCCCCCCCCC(=O)O)C(=O)O)C(=O)N[C@@H](CC(N)=O)C(=O)N[C@@H]([C@@H](C)O)C(=O)N[C@@H](C)C(=O)N[C@@H]([C@@H](C)O)C(=O)N1)[C@@H](C)O)C(=O)N[C@@H](C)C(=O)N[C@@H](CC(=O)O)C(=O)N[C@@H](Cc1ccccc1)C(=O)N[C@@H](CC(C)C)C(=O)N[C@@H](Cc1c[nH]cn1)C(=O)N[C@@H](Cc1c[nH]cn1)C(=O)N[C@@H](CO)C(=O)N[C@@H](CO)C(=O)N[C@@H](CC(N)=O)C(=O)N[C@@H](CC(N)=O)C(=O)N[C@@H](Cc1ccccc1)C(=O)NCC(=O)N[C@@H](C)C(=O)N1CCC[C@H]1C(=O)N[C@@H](CC(C)C)C(=O)N[C@@H](CO)C(=O)N[C@@H](CO)C(=O)N[C@H](C(=O)N[C@@H](CC(N)=O)C(=O)N[C@H](C(=O)NCC(=O)N[C@@H](CO)C(=O)N[C@@H](CC(N)=O)C(=O)N[C@H](C(=O)N[C@@H](Cc1ccc(O)cc1)C(N)=O)[C@@H](C)O)C(C)C)[C@@H](C)O
B2: N-alpha-[(S)-4-Carboxy-4-(19-carboxynonadecanoylamino)butyryl]-Glu-Arg-[Glu1,His17,Gln21,Ala25,Pro26,Ser28,Ser29]-pramlintide (peptide)
peptide: X2-ERECNTATCATQRLANFLHHSSQNFGAPLSSTNVGSNTY-NH2
modifications: disulfide 4-9
SMILES: CC(C)C[C@H](NC(=O)[C@H](CCCNC(=N)N)NC(=O)[C@H](CCC(N)=O)NC(=O)[C@@H](NC(=O)[C@H](C)NC(=O)[C@@H]1CSSC[C@H](NC(=O)[C@H](CCC(=O)O)NC(=O)[C@H](CCCNC(=N)N)NC(=O)[C@H](CCC(=O)O)NC(=O)CC[C@H](NC(=O)CCCCCCCCCCCCCCCCCCC(=O)O)C(=O)O)C(=O)N[C@@H](CC(N)=O)C(=O)N[C@@H]([C@@H](C)O)C(=O)N[C@@H](C)C(=O)N[C@@H]([C@@H](C)O)C(=O)N1)[C@@H](C)O)C(=O)N[C@@H](C)C(=O)N[C@@H](CC(N)=O)C(=O)N[C@@H](Cc1ccccc1)C(=O)N[C@@H](CC(C)C)C(=O)N[C@@H](Cc1c[nH]cn1)C(=O)N[C@@H](Cc1c[nH]cn1)C(=O)N[C@@H](CO)C(=O)N[C@@H](CO)C(=O)N[C@@H](CCC(N)=O)C(=O)N[C@@H](CC(N)=O)C(=O)N[C@@H](Cc1ccccc1)C(=O)NCC(=O)N[C@@H](C)C(=O)N1CCC[C@H]1C(=O)N[C@@H](CC(C)C)C(=O)N[C@@H](CO)C(=O)N[C@@H](CO)C(=O)N[C@H](C(=O)N[C@@H](CC(N)=O)C(=O)N[C@H](C(=O)NCC(=O)N[C@@H](CO)C(=O)N[C@@H](CC(N)=O)C(=O)N[C@H](C(=O)N[C@@H](Cc1ccc(O)cc1)C(N)=O)[C@@H](C)O)C(C)C)[C@@H](C)O
B3: N-alpha-[(S)-4-Carboxy-4-(19-carboxynonadecanoylamino)butyryl]-His-Arg-[His17]-pramlintide (peptide)
peptide: HRKCNTATCATQRLANFLHHSSNNFGPILPPTNVGSNTY-NH2
modifications: disulfide 4-9; not fully specified (N-terminus); printed as N-alpha-[(S)-4-Carboxy-4-(19-carboxynonadecanoylamino)butyryl]-His-Arg-[His17]-pramlintide
B4: N-alpha-[2-(2-{2-[4-(S)-Carboxy-4-(19-carboxynonadecanoylamino)butyrylamino]ethoxy}ethoxy)acetyl]-[His1,His17]-pramlintide (peptide)
peptide: {C20 diacid-γGlu-AEEA}-HCNTATCATQRLANFLHHSSNNFGPILPPTNVGSNTY-NH2
modifications: disulfide 2-7
B5: N-alpha-[2-(2-{2-[4-(S)-Carboxy-4-(19-carboxynonadecanoylamino)butyrylamino]ethoxy}ethoxy)acetyl]-His-[His1,His17]-pramlintide (peptide)
peptide: {C20 diacid-γGlu-AEEA}-HHCNTATCATQRLANFLHHSSNNFGPILPPTNVGSNTY-NH2
modifications: disulfide 3-8
SMILES: CC[C@H](C)[C@H](NC(=O)[C@@H]1CCCN1C(=O)CNC(=O)[C@H](Cc1ccccc1)NC(=O)[C@H](CC(N)=O)NC(=O)[C@H](CC(N)=O)NC(=O)[C@H](CO)NC(=O)[C@H](CO)NC(=O)[C@H](Cc1c[nH]cn1)NC(=O)[C@H](Cc1c[nH]cn1)NC(=O)[C@H](CC(C)C)NC(=O)[C@H](Cc1ccccc1)NC(=O)[C@H](CC(N)=O)NC(=O)[C@H](C)NC(=O)[C@H](CC(C)C)NC(=O)[C@H](CCCNC(=N)N)NC(=O)[C@H](CCC(N)=O)NC(=O)[C@@H](NC(=O)[C@H](C)NC(=O)[C@@H]1CSSC[C@H](NC(=O)[C@H](Cc2c[nH]cn2)NC(=O)[C@H](Cc2c[nH]cn2)NC(=O)COCCOCCNC(=O)CC[C@H](NC(=O)CCCCCCCCCCCCCCCCCCC(=O)O)C(=O)O)C(=O)N[C@@H](CC(N)=O)C(=O)N[C@@H]([C@@H](C)O)C(=O)N[C@@H](C)C(=O)N[C@@H]([C@@H](C)O)C(=O)N1)[C@@H](C)O)C(=O)N[C@@H](CC(C)C)C(=O)N1CCC[C@H]1C(=O)N1CCC[C@H]1C(=O)N[C@H](C(=O)N[C@@H](CC(N)=O)C(=O)N[C@H](C(=O)NCC(=O)N[C@@H](CO)C(=O)N[C@@H](CC(N)=O)C(=O)N[C@H](C(=O)N[C@@H](Cc1ccc(O)cc1)C(N)=O)[C@@H](C)O)C(C)C)[C@@H](C)O
B6: N-epsilon3-(19-carboxynonadecanoyl-Glu-Glu-Glu-Glu)-[Lys3,His17,Asp21]-pramlintide (peptide)
peptide: KCK([Glu-Glu-Glu-Glu-C20 diacid])TATCATQRLANFLHHSSDNFGPILPPTNVGSNTY-NH2
modifications: disulfide 2-7
B7: N-alpha-[(S)-4-Carboxy-4-(19-carboxynonadecanoylamino)butyryl]-[His17,Glu24]-pramlintide (2-37) (peptide)
peptide: {C20 diacid-γGlu}-CNTATCATQRLANFLHHSSNNFEPILPPTNVGSNTY-NH2
modifications: disulfide 1-6
SMILES: CC[C@H](C)[C@H](NC(=O)[C@@H]1CCCN1C(=O)[C@H](CCC(=O)O)NC(=O)[C@H](Cc1ccccc1)NC(=O)[C@H](CC(N)=O)NC(=O)[C@H](CC(N)=O)NC(=O)[C@H](CO)NC(=O)[C@H](CO)NC(=O)[C@H](Cc1c[nH]cn1)NC(=O)[C@H](Cc1c[nH]cn1)NC(=O)[C@H](CC(C)C)NC(=O)[C@H](Cc1ccccc1)NC(=O)[C@H](CC(N)=O)NC(=O)[C@H](C)NC(=O)[C@H](CC(C)C)NC(=O)[C@H](CCCNC(=N)N)NC(=O)[C@H](CCC(N)=O)NC(=O)[C@@H](NC(=O)[C@H](C)NC(=O)[C@@H]1CSSC[C@H](NC(=O)CC[C@H](NC(=O)CCCCCCCCCCCCCCCCCCC(=O)O)C(=O)O)C(=O)N[C@@H](CC(N)=O)C(=O)N[C@@H]([C@@H](C)O)C(=O)N[C@@H](C)C(=O)N[C@@H]([C@@H](C)O)C(=O)N1)[C@@H](C)O)C(=O)N[C@@H](CC(C)C)C(=O)N1CCC[C@H]1C(=O)N1CCC[C@H]1C(=O)N[C@H](C(=O)N[C@@H](CC(N)=O)C(=O)N[C@H](C(=O)NCC(=O)N[C@@H](CO)C(=O)N[C@@H](CC(N)=O)C(=O)N[C@H](C(=O)N[C@@H](Cc1ccc(O)cc1)C(N)=O)[C@@H](C)O)C(C)C)[C@@H](C)O
B8: N-alpha-[(S)-4-Carboxy-4-(19-carboxynonadecanoylamino)butyryl]-His-His-[His1,His17]-pramlintide (peptide)
peptide: HHHCNTATCATQRLANFLHHSSNNFGPILPPTNVGSNTY-NH2
modifications: disulfide 4-9; not fully specified (N-terminus); printed as N-alpha-[(S)-4-Carboxy-4-(19-carboxynonadecanoylamino)butyryl]-His-His-[His1,His17]-pramlintide
B9: N-alpha-[(S)-4-Carboxy-4-(19-carboxynonadecanoylamino)butyryl]-[Asp14,His17]-pramlintide (2-37) (peptide)
peptide: {C20 diacid-γGlu}-CNTATCATQRLADFLHHSSNNFGPILPPTNVGSNTY-NH2
modifications: disulfide 1-6
SMILES: CC[C@H](C)[C@H](NC(=O)[C@@H]1CCCN1C(=O)CNC(=O)[C@H](Cc1ccccc1)NC(=O)[C@H](CC(N)=O)NC(=O)[C@H](CC(N)=O)NC(=O)[C@H](CO)NC(=O)[C@H](CO)NC(=O)[C@H](Cc1c[nH]cn1)NC(=O)[C@H](Cc1c[nH]cn1)NC(=O)[C@H](CC(C)C)NC(=O)[C@H](Cc1ccccc1)NC(=O)[C@H](CC(=O)O)NC(=O)[C@H](C)NC(=O)[C@H](CC(C)C)NC(=O)[C@H](CCCNC(=N)N)NC(=O)[C@H](CCC(N)=O)NC(=O)[C@@H](NC(=O)[C@H](C)NC(=O)[C@@H]1CSSC[C@H](NC(=O)CC[C@H](NC(=O)CCCCCCCCCCCCCCCCCCC(=O)O)C(=O)O)C(=O)N[C@@H](CC(N)=O)C(=O)N[C@@H]([C@@H](C)O)C(=O)N[C@@H](C)C(=O)N[C@@H]([C@@H](C)O)C(=O)N1)[C@@H](C)O)C(=O)N[C@@H](CC(C)C)C(=O)N1CCC[C@H]1C(=O)N1CCC[C@H]1C(=O)N[C@H](C(=O)N[C@@H](CC(N)=O)C(=O)N[C@H](C(=O)NCC(=O)N[C@@H](CO)C(=O)N[C@@H](CC(N)=O)C(=O)N[C@H](C(=O)N[C@@H](Cc1ccc(O)cc1)C(N)=O)[C@@H](C)O)C(C)C)[C@@H](C)O

target: T1, Amylin 3(a) receptor (human calcitonin …); experiment: cell-based or functional assay

Row | Binder | Potency Luciferase [nM]
1 | B1 | 0.6
2 | B2 | 0.1
3 | B3 | 0.1
4 | B4 | 0.09
5 | B5 | 0.1
6 | B6 | 2
7 | B7 | 0.1
8 | B8 | 0.06
9 | B9 | 0.1
